Laboratory results taken from US7601687.

Experiments:
[1] = target: B type Insulin Receptor of islet cells (endogenous) (rat or mouse (not stated for the experiment)); assay: cell-based or functional assay
[2] = target: B type Insulin Receptor of HIT-T15 cells (endogenous) (hamster); assay: cell-based or functional assay

βGK mRNA levels in pancreatic islets (FIG. 4A) [1]: 50 µU per ml | amount of exogenous insulin necessary to trigger βGK promoter activity (βGK promoter-driven GFP expression, HIT cells, FIG. 4B) [2]: 20 µU per ml
Substance: insulin (ligand)
